Data as given in the supplement of paper PMC12042874.
± gives the uncertainty stated by the source.

Assay: amyloid nucleation score (Sup35N fusion, yeast selection) (log enrichment); library NNK2; higher = more nucleation; inactive = no reads after selection
How it was run: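 Using DiMSum, nucleation scores were taken as the log enrichment of output over input reads, centred on the mode score of non-aggregating sequences. The input and output reads came from Illumina sequencing of plasmid inserts, with sequences under 100 input reads excluded. The yeast were psi-negative, expressed Sup35N fused to peptides of 20 random codons, were induced with 100 μM copper sulfate for 24 hours, and were grown 7 days at 30°C on medium lacking adenine and uracil.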

Substance	amyloid nucleation score
LNSYFTFVWTSVFGCVDPYE	5.723 ± 0.035
LNTIFTKIIGFSA	-1.52 ± 0.49
LNVVARMFYLSLSSSGNWSG	-0.849 ± 0.64
LNWTTGFSDSAPVICPDTMH	-1.56 ± 1.1
LNYDNFE	inactive
LNYLCVHTLIACVSWVPVSA	2.36 ± 0.23
LNYRCAWWMLATMMLKRLSC	2.15 ± 0.31
LPFFKIMVRSSYCCNYQG	2.29 ± 0.065
LPGSYNYKGSHSQTNWFLDK	-2.09 ± 1
LPHLCCIIY	2.56 ± 0.066
LPIPIKETHLSCWAVDVGFD	-0.052 ± 0.2
LPIRWVVVGEGSGVGRVWTW	0.227 ± 0.3
LPLKNRVVDTCRKRFVGEVG	-0.19 ± 1
LPLYMTYACPVPTSIHRIIL	-0.06 ± 0.28
LPMLRHTYNCFSVACIGIFC	-0.204 ± 0.3
LPTFSPQ	3.77 ± 0.13
LPYYKHCNRLTNVTCLYKRR	3.34 ± 0.15
LQANWNDGPVGSSICAACSL	-0.746 ± 0.76
LQMSGTSR	0.265 ± 1.1
LQNFRCTGCVLFCMHICPAM	4.84 ± 0.075
LQVAARHHL	inactive
LRESFKRWMLVVAATLYAFK	0.376 ± 0.48

Substance	amyloid nucleation score
LRFPRWSPADGDSILHTTSQ	0.673 ± 0.66
LRGHRPFLVY	-0.02 ± 1.1
LRGRRRTVLPANGWCSLTAL	0.453 ± 0.28
LRIRYFSFDIIVLEGYIRSA	-0.205 ± 0.29
LRLFFNYWSNWGATEKNYIL	-1.52 ± 1.1
LRLLISV	0.306 ± 0.25
LRLWHDYSFFLNKVSQVHSY	-1.12 ± 1.1
LRMSVVQLSVRESLLDNHDY	1.78 ± 0.25
LRNMPRVQQVCPYFINVRGK	2.25 ± 0.082
LRNRMAERDLYLYAICSAGL	0.331 ± 0.55
LRRASINCKMLGGDVGQVMW	0.404 ± 0.66
LRRSTKSSCGVRCWVIEMGS	0.138 ± 1.1
LRSEFRFIYLRLTWKVR	inactive
LRSLGAGAIYMPALQCRSRS	0.255 ± 0.5
LSACIALASGYVGISGW	inactive
LSAKSTCTAYNRAGSARTEY	-0.072 ± 1.1
LSALCES	0.98 ± 0.53
LSALCGIGCDCLPTLTKLIV	-0.089 ± 0.25
LSCCSLIPTHPRPRDNVNEC	0.717 ± 0.23
LSCNMFDPVGQWCCGKKVGA	1.07 ± 0.42
LSCWAYHVSWGWWHYIFAW	1.11 ± 0.38
LSDIRWMSCGGVL	-0.602 ± 1.1

Substance	amyloid nucleation score
LSFFMPDT	-1.53 ± 0.36
LSFISRRDNDGYMICEYSLP	0.264 ± 0.65
LSGFKYWLRWL	inactive
LSGFV	-0.554 ± 0.64
LSGLRRPNRFLYT	-0.897 ± 0.43
LSGRHY	0.33 ± 0.74
LSHKAEYLCVFSWACRIMGL	0.155 ± 0.42
LSHPVIGGETKFPDDRNSQF	0.119 ± 0.19
LSHRNPASRNYRPWQLNC	0.245 ± 0.29
LSLVNGLRDVFTSGWALRCW	4.89 ± 0.05
LSLYFFDL	1.06 ± 0.36
LSMELNGYYILVCDLDFVTE	1.5 ± 0.16
LSMELNVYVERWWFSKLDRG	-1.26 ± 0.49
LSNLMRISMIFEYAAPLFRF	inactive
LSPRSGNRTP	-0.436 ± 0.41
LSPVVRSMKDVLQCESVDDR	0.191 ± 0.5
LSRFFFNRAPRKVTGLSVRY	0.96 ± 0.21
LSRSDAVRAFFRIMVLWKVV	-0.32 ± 0.63
LSRVSE	-0.405 ± 0.39
LSSKCYVA	-0.874 ± 1
LSVLTNDSGLFKFGFIRCVW	-1.21 ± 0.75
LSWAHVVICLIW	inactive

Substance	amyloid nucleation score
LSYLML	-1.03 ± 0.78
LSYNQD	-0.581 ± 0.64
LSYNVLLGRIEIPWVSFSRM	3.94 ± 0.068
LSYRVRCIRMNMLSSALGTM	inactive
LTDSKSALRLAMR	4.48 ± 0.039
LTDVYMVI	-0.395 ± 0.76
LTGALREFPIYSGANDIWWR	-0.796 ± 0.44
LTIDTTFVITSRYTCQLWQR	4.2 ± 0.056
LTILFH	4.84 ± 0.078
LTLLFGRSVSEWVWNLMDRC	-0.461 ± 0.29
LTPYEYCVYDCFLSLESVLF	inactive
LTRPCITV	0.193 ± 0.55
LTSMEARLQMKVRDGFQNGE	0.437 ± 0.49
LTTGKLYFSLEMYT	-0.653 ± 0.63
LTTMFFIMCHEFNLLAVFNY	1.27 ± 0.26
LTVRELLFTSRRHRARRHSC	1.81 ± 0.32
LTVVV	0.709 ± 0.66
LVAFLGQIEPSRTQRTLGSG	0.001 ± 0.39
LVDFNVLYNAGIIRLHTERY	8.048 ± 0.07
LVDNLR	-0.441 ± 1.1
